Each block holds one binder with its values, some of them ahead of it.
Biological target: T1, TNFR1 (Homo sapiens, UniProt P19438)
T1 chain: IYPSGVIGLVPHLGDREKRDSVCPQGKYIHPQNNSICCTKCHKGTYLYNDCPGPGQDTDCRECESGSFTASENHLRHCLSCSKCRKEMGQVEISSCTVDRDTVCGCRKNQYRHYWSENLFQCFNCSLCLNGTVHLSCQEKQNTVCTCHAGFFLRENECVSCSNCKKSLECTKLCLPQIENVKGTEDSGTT
Experiment: yeast display SC50

B1: R65V (designed binder)
chain: SMEEEVEKAAKEYEKKKKEAIEKHLEKLKAKDKEAAERFLKELEEAAKEYAKDEAKTMSEEEAKVRAKKYKEKVLLSELSEEEQKEIKEAEEKLVRTILKYVEEAAK
apparent Kd (screen): 1.4 nM

B3: E4Y (designed binder)
chain: SMEYEVEKAAKEYEKKKKEAIEKHLEKLKAKDKEAAERFLKELEEAAKEYAKDEAKTMSEEEAKRRAKKYKEKVLLSELSEEEQKEIKEAEEKLVRTILKYVEEAAK
apparent Kd (screen): 1.16 nM

B5: A55C (designed binder)
chain: SMEEEVEKAAKEYEKKKKEAIEKHLEKLKAKDKEAAERFLKELEEAAKEYAKDECKTMSEEEAKRRAKKYKEKVLLSELSEEEQKEIKEAEEKLVRTILKYVEEAAK
apparent Kd (screen): 11.4 nM

B6: Y13I (designed binder)
chain: SMEEEVEKAAKEIEKKKKEAIEKHLEKLKAKDKEAAERFLKELEEAAKEYAKDEAKTMSEEEAKRRAKKYKEKVLLSELSEEEQKEIKEAEEKLVRTILKYVEEAAK
apparent Kd (screen): 11.4 nM

B7: E44F (designed binder)
chain: SMEEEVEKAAKEYEKKKKEAIEKHLEKLKAKDKEAAERFLKELFEAAKEYAKDEAKTMSEEEAKRRAKKYKEKVLLSELSEEEQKEIKEAEEKLVRTILKYVEEAAK
apparent Kd (screen): 1.69 nM

B9: A20C (designed binder)
chain: SMEEEVEKAAKEYEKKKKECIEKHLEKLKAKDKEAAERFLKELEEAAKEYAKDEAKTMSEEEAKRRAKKYKEKVLLSELSEEEQKEIKEAEEKLVRTILKYVEEAAK
apparent Kd (screen): 0.718 nM

B11: A9F (designed binder)
chain: SMEEEVEKFAKEYEKKKKEAIEKHLEKLKAKDKEAAERFLKELEEAAKEYAKDEAKTMSEEEAKRRAKKYKEKVLLSELSEEEQKEIKEAEEKLVRTILKYVEEAAK
apparent Kd (screen): 0.718 nM

B12: T57D (designed binder)
chain: SMEEEVEKAAKEYEKKKKEAIEKHLEKLKAKDKEAAERFLKELEEAAKEYAKDEAKDMSEEEAKRRAKKYKEKVLLSELSEEEQKEIKEAEEKLVRTILKYVEEAAK
apparent Kd (screen): 13.8 nM

B13: E42W (designed binder)
chain: SMEEEVEKAAKEYEKKKKEAIEKHLEKLKAKDKEAAERFLKWLEEAAKEYAKDEAKTMSEEEAKRRAKKYKEKVLLSELSEEEQKEIKEAEEKLVRTILKYVEEAAK
apparent Kd (screen): 0.49 nM

B14: R96Q (designed binder)
chain: SMEEEVEKAAKEYEKKKKEAIEKHLEKLKAKDKEAAERFLKELEEAAKEYAKDEAKTMSEEEAKRRAKKYKEKVLLSELSEEEQKEIKEAEEKLVQTILKYVEEAAK
apparent Kd (screen): 1.4 nM

B15: K11G (designed binder)
chain: SMEEEVEKAAGEYEKKKKEAIEKHLEKLKAKDKEAAERFLKELEEAAKEYAKDEAKTMSEEEAKRRAKKYKEKVLLSELSEEEQKEIKEAEEKLVRTILKYVEEAAK
apparent Kd (screen): 0.446 nM

B16: K15Q (designed binder)
chain: SMEEEVEKAAKEYEQKKKEAIEKHLEKLKAKDKEAAERFLKELEEAAKEYAKDEAKTMSEEEAKRRAKKYKEKVLLSELSEEEQKEIKEAEEKLVRTILKYVEEAAK
apparent Kd (screen): 0.956 nM

B18: E54F (designed binder)
chain: SMEEEVEKAAKEYEKKKKEAIEKHLEKLKAKDKEAAERFLKELEEAAKEYAKDFAKTMSEEEAKRRAKKYKEKVLLSELSEEEQKEIKEAEEKLVRTILKYVEEAAK
apparent Kd (screen): 0.405 nM

B19: E49A (designed binder)
chain: SMEEEVEKAAKEYEKKKKEAIEKHLEKLKAKDKEAAERFLKELEEAAKAYAKDEAKTMSEEEAKRRAKKYKEKVLLSELSEEEQKEIKEAEEKLVRTILKYVEEAAK
apparent Kd (screen): 2.73 nM

B21: L75E (designed binder)
chain: SMEEEVEKAAKEYEKKKKEAIEKHLEKLKAKDKEAAERFLKELEEAAKEYAKDEAKTMSEEEAKRRAKKYKEKVELSELSEEEQKEIKEAEEKLVRTILKYVEEAAK
apparent Kd (screen): 2.73 nM

B23: E104D (designed binder)
chain: SMEEEVEKAAKEYEKKKKEAIEKHLEKLKAKDKEAAERFLKELEEAAKEYAKDEAKTMSEEEAKRRAKKYKEKVLLSELSEEEQKEIKEAEEKLVRTILKYVEDAAK
apparent Kd (screen): 0.956 nM

B24: E34Q (designed binder)
chain: SMEEEVEKAAKEYEKKKKEAIEKHLEKLKAKDKQAAERFLKELEEAAKEYAKDEAKTMSEEEAKRRAKKYKEKVLLSELSEEEQKEIKEAEEKLVRTILKYVEEAAK
apparent Kd (screen): 0.446 nM

B26: R66W (designed binder)
chain: SMEEEVEKAAKEYEKKKKEAIEKHLEKLKAKDKEAAERFLKELEEAAKEYAKDEAKTMSEEEAKRWAKKYKEKVLLSELSEEEQKEIKEAEEKLVRTILKYVEEAAK
apparent Kd (screen): 8.56 nM

B27: M58H (designed binder)
chain: SMEEEVEKAAKEYEKKKKEAIEKHLEKLKAKDKEAAERFLKELEEAAKEYAKDEAKTHSEEEAKRRAKKYKEKVLLSELSEEEQKEIKEAEEKLVRTILKYVEEAAK
apparent Kd (screen): 7.78 nM

B29: Q84D (designed binder)
chain: SMEEEVEKAAKEYEKKKKEAIEKHLEKLKAKDKEAAERFLKELEEAAKEYAKDEAKTMSEEEAKRRAKKYKEKVLLSELSEEEDKEIKEAEEKLVRTILKYVEEAAK
apparent Kd (screen): 3.63 nM

B32: A55K (designed binder)
chain: SMEEEVEKAAKEYEKKKKEAIEKHLEKLKAKDKEAAERFLKELEEAAKEYAKDEKKTMSEEEAKRRAKKYKEKVLLSELSEEEQKEIKEAEEKLVRTILKYVEEAAK
apparent Kd (screen): 6.43 nM

B33: K29I (designed binder)
chain: SMEEEVEKAAKEYEKKKKEAIEKHLEKLIAKDKEAAERFLKELEEAAKEYAKDEAKTMSEEEAKRRAKKYKEKVLLSELSEEEQKEIKEAEEKLVRTILKYVEEAAK
apparent Kd (screen): 1.54 nM

Continued, values first:

apparent Kd (screen): 7.07 nM
B2: T97P (designed binder)
chain: SMEEEVEKAAKEYEKKKKEAIEKHLEKLKAKDKEAAERFLKELEEAAKEYAKDEAKTMSEEEAKRRAKKYKEKVLLSELSEEEQKEIKEAEEKLVRPILKYVEEAAK

apparent Kd (screen): 0.956 nM
B4: E37I (designed binder)
chain: SMEEEVEKAAKEYEKKKKEAIEKHLEKLKAKDKEAAIRFLKELEEAAKEYAKDEAKTMSEEEAKRRAKKYKEKVLLSELSEEEQKEIKEAEEKLVRTILKYVEEAAK

apparent Kd (screen): 0.593 nM
B8: K64E (designed binder)
chain: SMEEEVEKAAKEYEKKKKEAIEKHLEKLKAKDKEAAERFLKELEEAAKEYAKDEAKTMSEEEAERRAKKYKEKVLLSELSEEEQKEIKEAEEKLVRTILKYVEEAAK

apparent Kd (screen): 0.49 nM
B10: L43C (designed binder)
chain: SMEEEVEKAAKEYEKKKKEAIEKHLEKLKAKDKEAAERFLKECEEAAKEYAKDEAKTMSEEEAKRRAKKYKEKVLLSELSEEEQKEIKEAEEKLVRTILKYVEEAAK

apparent Kd (screen): 2.48 nM
B17: E78A (designed binder)
chain: SMEEEVEKAAKEYEKKKKEAIEKHLEKLKAKDKEAAERFLKELEEAAKEYAKDEAKTMSEEEAKRRAKKYKEKVLLSALSEEEQKEIKEAEEKLVRTILKYVEEAAK

apparent Kd (screen): 0.446 nM
B20: K16F (designed binder)
chain: SMEEEVEKAAKEYEKFKKEAIEKHLEKLKAKDKEAAERFLKELEEAAKEYAKDEAKTMSEEEAKRRAKKYKEKVLLSELSEEEQKEIKEAEEKLVRTILKYVEEAAK

apparent Kd (screen): 20.2 nM
B22: A67T (designed binder)
chain: SMEEEVEKAAKEYEKKKKEAIEKHLEKLKAKDKEAAERFLKELEEAAKEYAKDEAKTMSEEEAKRRTKKYKEKVLLSELSEEEQKEIKEAEEKLVRTILKYVEEAAK

apparent Kd (screen): 0.956 nM
B25: K27E (designed binder)
chain: SMEEEVEKAAKEYEKKKKEAIEKHLEELKAKDKEAAERFLKELEEAAKEYAKDEAKTMSEEEAKRRAKKYKEKVLLSELSEEEQKEIKEAEEKLVRTILKYVEEAAK

apparent Kd (screen): 0.446 nM
B28: K17Y (designed binder)
chain: SMEEEVEKAAKEYEKKYKEAIEKHLEKLKAKDKEAAERFLKELEEAAKEYAKDEAKTMSEEEAKRRAKKYKEKVLLSELSEEEQKEIKEAEEKLVRTILKYVEEAAK

apparent Kd (screen): 1.54 nM
B30: A67S (designed binder)
chain: SMEEEVEKAAKEYEKKKKEAIEKHLEKLKAKDKEAAERFLKELEEAAKEYAKDEAKTMSEEEAKRRSKKYKEKVLLSELSEEEQKEIKEAEEKLVRTILKYVEEAAK

apparent Kd (screen): 0.539 nM
B31: K17V (designed binder)
chain: SMEEEVEKAAKEYEKKVKEAIEKHLEKLKAKDKEAAERFLKELEEAAKEYAKDEAKTMSEEEAKRRAKKYKEKVLLSELSEEEQKEIKEAEEKLVRTILKYVEEAAK

apparent Kd (screen): 1.05 nM
B34: K56L (designed binder)
chain: SMEEEVEKAAKEYEKKKKEAIEKHLEKLKAKDKEAAERFLKELEEAAKEYAKDEALTMSEEEAKRRAKKYKEKVLLSELSEEEQKEIKEAEEKLVRTILKYVEEAAK

apparent Kd (screen): 13.8 nM
B35: L79H (designed binder)
chain: SMEEEVEKAAKEYEKKKKEAIEKHLEKLKAKDKEAAERFLKELEEAAKEYAKDEAKTMSEEEAKRRAKKYKEKVLLSEHSEEEQKEIKEAEEKLVRTILKYVEEAAK
